± gives the standard deviation.
Assay: protein stability index of a GFP-peptide fusion (GPS, HEK-293T) (PSI 1-6); higher = more stable
[1] = treatment: DMSO, c terminus: a fixed tail appended
[2] = treatment: MLN4924 1 uM, 8 h, c terminus: a fixed tail appended
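Note: 24-mer peptide tiles fused after GFP, lentivirally expressed, FACS-sorted into six equal bins by GFP/DsRed ratio, decoded by Illumina sequencing, PSI is the read-weighted mean bin number.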

Row | Sequence | protein stability index [1] | protein stability index [2] | protein stability index (treatment: DMSO, c terminus: native) | protein stability index (treatment: MLN4924 1 uM, 8 h, c terminus: native)
1 | KDVRAPSRPAVGPPQPGCPAFIIV [ZSWIM9] | 2.23 ± 0.75 | 2.43 ± 0.6 | – | –
2 | LMDCCLIVYHPYRPLLQYVQDMGQ [CCNC] | 3.26 ± 0.83 | 3.17 ± 0.55 | – | –
3 | YDLDKIIELNGGQPPLTYKRFQTL [CRY1] | 2.69 ± 0.38 | 2.77 ± 0.32 | – | –
4 | AVVAVDRQAIFPDTWTLTEEHGLQ [PXN] | 3.35 ± 0.51 | 3.35 ± 0.34 | – | –
5 | YGYVYFRQVRDKTLKRGYFQKSLV [DENND6A] | 2.56 ± 0.46 | 2.1 ± 0.16 | – | –
6 | EKPPSGTKEKKHQCDHCERCFYTR [PLAGL1] | 3.87 ± 0.26 | 4.3 ± 0.62 | – | –
7 | AEEIRIKGKYNISSEDYRQLELVI [KCNK9] | 2.25 ± 0.2 | 2.05 ± 0.38 | – | –
8 | ITNTDVDCLKACQEQIEAVLLNSL [CCND2] | 2.73 ± 0.2 | 2.86 ± 0.39 | – | –
9 | TLGEVPAAESPDPPQSPQGASSLP [MAGEA3] | 5.5 ± 0.22 | 5.37 ± 0.1 | – | –
10 | FFRMFDRNTKRDVTLEASRENSKP [PPP2R2B] | 3.45 ± 0.14 | 3.82 ± 0.23 | – | –
11 | IYSLRNKEFKSALCKIVRRTISLL [OR10K2] | 2.74 ± 1.2 | 2.17 ± 0.49 | – | –
12 | ISRKLGDMRNSATFKSFEDRVGTI [TPD52L2] | 2.98 ± 0.22 | 3.07 ± 0.24 | – | –
13 | EAAFHPIEEYMVHVEEHFQLLARR [FUT8] | 3.06 ± 0.29 | 3.34 ± 0.36 | – | –
14 | LKNPFFRYTGTTPSPPPGSHYTSP [CARM1] | 2.9 ± 0.16 | 3.16 ± 0.25 | – | –
15 | VRKREAPAPEAESKQTEKDPGVQE [EFHC1] | 5.47 ± 0.27 | 5.61 ± 0.34 | – | –
16 | VGELLPCKICGRTFFPVALKKHGP [ZC2HC1A] | 2.84 ± 0.51 | 2.57 ± 0.19 | – | –
17 | PLCNFNIIESFTELARIVLLRHRM [RAB40A] | 2.6 ± 0.21 | 2.87 ± 0.79 | – | –
18 | EYQLFEELGKGAFSVVRRCMKIPT [CAMK2D] | 2.07 ± 0.27 | 2.2 ± 0.54 | – | –
19 | LGLRQHHCRKCGQAVCGKCSSKRS [WDFY1] | 4.28 ± 0.29 | 4.26 ± 0.29 | – | –
20 | HCTGNEATLAACTSNGWGVTDCKH [LOXL2] | 3.98 ± 0.24 | 4.21 ± 0.28 | – | –
21 | PLRLFLIIANTMAFQNDVYEWARD [SCD] | 2.75 ± 0.61 | 2.87 ± 0.61 | – | –
22 | SDSGLSLDSSHSPSSLSSSEGSSS [NFE2L1] | 5.41 ± 0.23 | 5.34 ± 0.17 | – | –

Row | Sequence | protein stability index [1] | protein stability index [2] | protein stability index (treatment: DMSO, c terminus: native) | protein stability index (treatment: MLN4924 1 uM, 8 h, c terminus: native)
23 | VTGETRVLSSTTLLPRQPLPLGIK [PALM] | 3.66 ± 0.35 | 3.63 ± 0.22 | – | –
24 | RVPQTWSKRLYGVYDNEKKLQLQL [PLD5] | 2.39 ± 0.32 | 2.31 ± 0.28 | – | –
25 | DGRSLSKLNLCEDGPCHKRRASIC [SCARA5] | 3.88 ± 0.33 | 3.93 ± 0.3 | – | –
26 | SGRLSASWEPLSGPSTPSPVAAQF [FCHO1] | 3.14 ± 0.25 | 3.02 ± 0.23 | – | –
27 | EELERRFEDEVKRLGWQQQAELQE [MTUS2] | 5.01 ± 0.51 | 5.24 ± 0.35 | – | –
28 | NQILMEKYLKLQDTCRTQLVWLVR [INTS3] | 2.02 ± 0.39 | 2.38 ± 0.31 | – | –
29 | SAYISNYAFANVFHGWKYMFGLVI [SLC2A12] | 2.91 ± 0.38 | 2.9 ± 0.67 | – | –
30 | QGGSLPSEEKGHPQEESEESNVSM [CHGB] | 5.59 ± 0.24 | 5.53 ± 0.25 | – | –
31 | SLRSYLKRRGPQRSVDVVVSSVFL [PHTF1] | 2.48 ± 0.32 | 2.09 ± 0.24 | – | –
32 | FMLMLLVLGIQVKCFHEIITIGYR [CDS1] | 3.31 ± 0.45 | 3.3 ± 0.41 | – | –
33 | EPLVLYNQNLSNRPSFNRTPIPWL [MYOZ1] | 2.39 ± 0.4 | 2.44 ± 0.17 | – | –
34 | NYFVTMFDDYSATLPLTLIVILEN [SLC6A17] | 3.05 ± 0.61 | 2.85 ± 0.62 | – | –
35 | YKIVKPLWTSFIQSVSYSKLLSVI [P2RY14] | 2.06 ± 0.16 | 2.36 ± 0.39 | – | –
36 | CPPLPAGVSFHIDSAELEPGSQTA [FBXO34] | 5.03 ± 0.4 | 5.09 ± 0.2 | – | –
37 | YSLRNKEFKSALCKIVRRTISLL [OR10K2] | – | – | 2.96 ± 0.64 | 2.93 ± 0.21
38 | LLGWGYYLIMLPFRFTYYTILDIF [FAF2] | 4.59 ± 0.36 | 4.7 ± 0.17 | – | –
39 | WQVLCMLSLCCWGWVSGQLRYSVV [PCDHGC5] | 3.24 ± 0.69 | 3.04 ± 0.35 | – | –
40 | PSRKYISTKAIPEKYGAVREVILK [ZBED1] | 2.87 ± 0.18 | 2.92 ± 0.34 | – | –
41 | TSFIRGPNPSKVLQQLLVLQPEQQ [CDS1] | 3.37 ± 0.19 | 3.3 ± 0.095 | – | –
42 | PLCNFNVIESFTELSRIVLMRHGM [RAB40C] | 2.94 ± 0.45 | 2.73 ± 0.41 | – | –
43 | PAPGKLLGPCVVGYGIYYFIYSTW [SAT2] | 2.62 ± 0.65 | 2.92 ± 0.46 | – | –
44 | MKCQSYCEPPSYRPMHHEDFKEDL [CDC25A] | 3.77 ± 0.16 | 4.02 ± 0.23 | – | –

Row | Sequence | protein stability index [1] | protein stability index [2] | protein stability index (treatment: DMSO, c terminus: native) | protein stability index (treatment: MLN4924 1 uM, 8 h, c terminus: native)
45 | KNLLHAEFLRVQEERILHQQVKCI [VPS39] | 2.58 ± 0.16 | 2.71 ± 0.26 | – | –
46 | EFEQFESTIGFKLPNHRAAKRLWK [EPB41L3] | 3.17 ± 0.39 | 3.27 ± 0.61 | – | –
47 | NGFPDSTGDPLPEISKDNSCKENC [EDARADD] | 5.2 ± 0.24 | 5.17 ± 0.48 | – | –
48 | QLQCSPAELQAELLHSQARLAELE [FBF1] | 3.88 ± 0.41 | 3.98 ± 0.26 | – | –
49 | RNLRTQQEIEDKMKGFSFKEDTLL [C8orf76] | 4.11 ± 0.12 | 4.16 ± 0.19 | – | –
50 | LCKVLGVLFSVAGGLFVGKEGPMI [CLCN6] | 2.73 ± 0.25 | 2.89 ± 0.5 | – | –
51 | LLSSSEEECKDRERPMYGRDSAYQ [EMD] | 4.48 ± 0.23 | 4.51 ± 0.46 | – | –
52 | SNTLGFGTEQAPYGMQTQNYPKGG [ETS2] | 4.29 ± 0.26 | 4.2 ± 0.28 | – | –
53 | MKACQEDDVRLLCHLTPSIYTEFP [INTS3] | 2.62 ± 0.28 | 2.55 ± 0.25 | – | –
54 | VMFQRRYYKPGLLMMCFILPTLVP [SCD] | 3.51 ± 0.77 | 2.72 ± 0.71 | – | –
55 | MVFPAKRFCLVPSMEGVRWAFSCG [AASDHPPT] | 2.74 ± 0.79 | 2.77 ± 0.72 | – | –
56 | DFPAHRIVLAACSDYFCAMFTSEL [KLHL12] | 3.08 ± 0.41 | 3.27 ± 0.51 | – | –
57 | NVCSLLAQTPLHVAAETGHTSTAR [RIPK4] | 3.67 ± 0.26 | 3.47 ± 0.27 | – | –
58 | VNSVCWASLNHLDSHILLCLMGLA [DCAF4] | 2.51 ± 0.63 | 2.69 ± 0.36 | – | –
59 | TYVDKKRDLLGALKHWRRAMELRH [FEM1A] | 2.28 ± 0.26 | 2.31 ± 0.11 | – | –
60 | EEPSNKRVRPLARVTSLANLISPV [NET1] | 3.43 ± 0.47 | 3.44 ± 0.19 | – | –
61 | RRGVSDWDLRMKLHDRGAQVIHPQ [DNAAF3] | 3.58 ± 0.092 | 3.55 ± 0.35 | – | –
62 | TDATAFWWGEWTKWTACSRSCGGG [ADAMTSL2] | 2.24 ± 0.68 | 2.59 ± 0.6 | – | –
63 | TIDDTISKFRRKDREDSPERCSDS [CLINT1] | 5.5 ± 0.3 | 5.44 ± 0.3 | – | –
64 | GLIISGPILQEGMDEEKLKQLNCV [DLC1] | 3.52 ± 0.2 | 3.42 ± 0.3 | – | –
65 | SSSGYSSAEINQDLNIQLLKDGYR [FAM219A] | 3.67 ± 0.15 | 3.85 ± 0.22 | – | –

Reference: the supplement of paper PMC10567573
